Measurements published in patent publication US20060222643A1 (Chugai, published 2006).
Changes are numbered by the printed parent chain. No end group written: not given here.

Tests used:
[1] = target: human Mpl expressed on BaF3 cells (BaF3-human Mpl) (human) (UniProt P40238); assay: cell-based or functional assay
[2] = target: T1, cynomolgus monkey Mpl expressed on CHO cells (CHO-monkey Mpl) (cynomolgus monkey, UniProt P40238 26-635 (human entry)); assay: flow cytometry on CHO-monkey Mpl cells; COS7 culture supernatant; detection with anti-FLAG M2 antibody and FITC-labeled anti-mouse IgG
T1 construct: pCXND3-monkey Mpl-His in CHO-DG44; also called monkey Mpl-His
T1 chain: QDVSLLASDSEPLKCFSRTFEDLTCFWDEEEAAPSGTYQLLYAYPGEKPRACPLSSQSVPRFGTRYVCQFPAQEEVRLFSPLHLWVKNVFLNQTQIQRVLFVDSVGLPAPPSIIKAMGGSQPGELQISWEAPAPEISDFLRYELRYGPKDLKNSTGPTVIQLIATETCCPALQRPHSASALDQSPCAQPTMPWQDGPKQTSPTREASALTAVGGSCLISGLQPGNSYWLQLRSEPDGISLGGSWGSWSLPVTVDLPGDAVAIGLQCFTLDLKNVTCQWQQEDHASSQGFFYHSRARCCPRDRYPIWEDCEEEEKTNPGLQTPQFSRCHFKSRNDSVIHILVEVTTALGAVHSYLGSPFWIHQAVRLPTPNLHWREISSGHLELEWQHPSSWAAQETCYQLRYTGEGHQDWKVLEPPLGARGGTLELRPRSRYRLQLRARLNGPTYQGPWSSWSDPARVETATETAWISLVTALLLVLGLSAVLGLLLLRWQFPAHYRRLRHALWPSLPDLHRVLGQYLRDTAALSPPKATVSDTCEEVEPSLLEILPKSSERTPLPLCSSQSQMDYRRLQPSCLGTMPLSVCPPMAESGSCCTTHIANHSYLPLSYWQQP
Method: (§1) CHO-human Mpl, CHO-monkey Mpl, and CHO-mouse Mpl cells were recovered and suspended in FACS buffer (1% FBS/PBS) to a final concentration of 1×10⁶ cells/mL. Cell suspensions were aliquoted at 100-μL/well into the Multiscreen-HV Filter Plates (Millipore). After centrifugation, the supernatant was removed. An appropriate concentration of diabody or sc(Fv)2 was added into each well and incubated on ice for 30 min. The cells were washed once with 200 μL of FACS buffer, and incubated on ice for 30 min following the addition of 10 μg/mL ANTI-FLAG® M2 Monoclonal Antibody (Sigma-Aldrich). The cells were then washed once with 200 μL of FACS buffer, and a 100×-diluted FITC-labeled anti-mouse IgG antibody (Beckman Coulter) was added to the plate. The plate was incubated on ice for 30 min. After centrifugation, the supernatant was removed. The cells were suspended in 400 μL of FACS Buffer, and then analyzed by flow cytometry using EPICS ELITE ESP (Beckman Coulter). An analysis gate was set on the forward and side scatters of a histogram to include viable cell populations.
(§2) The binding activities of the diabodies were assessed by flow cytometry using CHO cells that express Mpl derived from various species (FIG. 8). AB317 was proven to bind to CHO-mouse Mpl.

[3] = target: T2, mouse Mpl expressed on CHO cells (CHO-mouse Mpl) (mouse, UniProt Q08351 26-625); assay: flow cytometry on CHO-mouse Mpl cells; COS7 culture supernatant; detection with anti-FLAG M2 antibody and FITC-labeled anti-mouse IgG
T2 construct: whole, on cells; pCXND3-mouse Mpl-His in CHO-DG44; also called mouse Mpl-His
T2 sequence (looked up): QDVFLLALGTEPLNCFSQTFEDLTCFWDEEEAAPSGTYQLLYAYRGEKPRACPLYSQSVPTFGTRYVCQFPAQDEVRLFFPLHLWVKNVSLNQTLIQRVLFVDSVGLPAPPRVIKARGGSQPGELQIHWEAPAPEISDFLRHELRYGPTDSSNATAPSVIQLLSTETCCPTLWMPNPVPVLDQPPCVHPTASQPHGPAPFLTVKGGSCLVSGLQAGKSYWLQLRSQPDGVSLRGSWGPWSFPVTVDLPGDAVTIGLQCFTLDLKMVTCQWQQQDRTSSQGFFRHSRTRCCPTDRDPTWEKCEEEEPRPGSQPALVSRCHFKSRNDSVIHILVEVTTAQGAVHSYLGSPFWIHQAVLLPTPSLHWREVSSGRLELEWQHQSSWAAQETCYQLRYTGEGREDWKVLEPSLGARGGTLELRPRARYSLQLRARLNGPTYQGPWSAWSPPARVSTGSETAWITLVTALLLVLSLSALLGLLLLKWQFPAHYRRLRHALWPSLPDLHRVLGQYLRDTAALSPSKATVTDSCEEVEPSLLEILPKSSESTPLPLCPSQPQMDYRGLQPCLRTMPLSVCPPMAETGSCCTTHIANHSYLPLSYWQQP
Method: as §1, §2

[4] = target: T3, human Mpl expressed on BaF3 cells (BaF3-human Mpl) (human, UniProt P40238 26-635); assay: cell-based or functional assay
T3 sequence: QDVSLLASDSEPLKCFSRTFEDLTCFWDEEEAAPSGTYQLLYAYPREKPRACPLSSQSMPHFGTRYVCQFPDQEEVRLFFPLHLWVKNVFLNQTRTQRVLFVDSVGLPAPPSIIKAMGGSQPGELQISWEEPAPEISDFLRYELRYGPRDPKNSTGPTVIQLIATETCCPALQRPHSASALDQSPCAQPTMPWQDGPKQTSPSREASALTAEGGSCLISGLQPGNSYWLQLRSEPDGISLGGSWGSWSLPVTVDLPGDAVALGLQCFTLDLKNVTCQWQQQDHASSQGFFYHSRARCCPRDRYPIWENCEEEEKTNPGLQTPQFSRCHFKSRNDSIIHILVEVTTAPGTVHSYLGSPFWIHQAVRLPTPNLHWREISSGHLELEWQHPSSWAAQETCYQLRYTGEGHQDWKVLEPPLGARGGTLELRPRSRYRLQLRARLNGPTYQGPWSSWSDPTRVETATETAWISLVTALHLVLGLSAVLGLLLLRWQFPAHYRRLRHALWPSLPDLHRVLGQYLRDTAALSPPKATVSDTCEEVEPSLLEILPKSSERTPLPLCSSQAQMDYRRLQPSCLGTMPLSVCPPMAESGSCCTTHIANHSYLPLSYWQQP

[5] = target: T4, MG10 (Gln213 to Ala231)-GST fusion protein (human, also: fused with GST); assay: SPR, Biacore 3000, MG10-GST immobilized on CM5, Bivalent analyte model (constants as for the monovalent antibody), triplicate
T4 construct: As MG1; also called MG10-GST fusion protein; GST fusion protein containing MG10; not shown: glutathione-S-transferase of vector pGEX-4T-3 (Amersham Biosciences)
T4 chain: QPTMPWQDGPKQTSPSREA
Method: The Sensor Chip CM5 (Biacore) was placed in Biacore 3000 (Biacore), and MG10-GST fusion protein was immobilized onto the chip by amine-coupling methods. HBS-EP Buffer (Biacore) was used as the running buffer, and the flow rate was 20 μL/min. 5.5 to 175.0 nM of VB22B IgG solution was prepared using HBS-EP Buffer, and injected over each of the chip surfaces for 2 min to obtain the binding region at the respective concentrations. Then, dissociation region for the 2 minutes was measured. VB22B IgG bound to the MG10-GST fusion protein on the sensor chip was removed by injecting 20 mM HCl over the sensor chip for 1 min, and the chip was recovered. Similarly, 4.7 to 150.1 nM of VB22B sc(Fv)2, 5.3 to 168.9 nM of hVB22B q-wz5 sc(Fv)2, and 4.9 to 156.8 nM of hVB22B u2-wz4 sc(Fv)2 were prepared and injected over the chip surfaces onto which MG10-GST fusion protein was immobilized, and the measurement was carried out.
All the antibodies used were bivalent antibodies, and thus the sensorgrams at each concentration were obtained in the presence of both monovalent and bivalent bindings. In this context, the reaction rate constant was determined as that for the monovalent antibody by analysis using the Bivalent analyte model of BIAevaluation ver.3.1 software (Biacore). The above analysis was carried out in triplicates for each antibody. The binding rate constant (ka), dissociation rate constant (kd), and dissociation constant (KD) were determined as those for the monovalent antibody by the procedure described above. The constants are indicated below in Table 1.

[6] = target: T2, mouse Mpl expressed on CHO cells …; assay: flow cytometry on CHO cells, detection by anti-FLAG M2 and FITC anti-mouse IgG
Method: as §1
(§3) The binding activity of the purified VB22B sc(Fv)2 to various Mpl molecules expressed in CHO cells was determined (FIG. 2).

[7] = target: T1, cynomolgus monkey Mpl expressed on CHO …; assay: as above
Method: as §1, §3

recombinant human thrombopoietin (rhTPO, R&D) (from UniProt P40225 22-353) (ligand)
agonistic activity, EC50 (growth of BaF3-human Mpl, WST-8) [1]: 76 pM

B1: VB22B diabody (scFv)
scFv: QVQLQQSGPELVKPGASVKISCKASGYAFTNSWMNWVKQRPGKGLEWIGRIYPGDGETIYNGKFRVKATLTADKSSSTAYMDISSLTSEDSAVYFCARGYDDYSFAYWGQGTLVTVSAGGGGSDIVMTQAAPSIPVTPGESVSISCRSSKSLLHSNGNTYLYWFLQRPGQSPQLLIYRMSNLASGVPDRFSGSGSGTAFTLRISRVEAEDVGVYYCMQHIEYPFTFGSGTKLEIK
notes: also called VB22B db; VB22B single-chain Fv
binding result [2]: binds | binding result [3]: no binding | TPO-like agonistic activity, EC50 (growth of BaF3-human Mpl, WST-8) [4]: 61 pM

B2: hVB22B q-wz5 sc(Fv)2 (scFv)
chain: QVQLVQSGPEVKKPGASVKVSCKASGYTFTNSWMNWVRQRPGKGLEWIGRIYPGDGETIYNGKFRVRVTITADESTSTAYMELSSLRSEDTAVYYCARGYDDYSFAYWGQGTTVTVSSGGGGSGGGGSGGGGSDIVMTQSPLSLPVTPGEPASISCRSSKSLLHSNGNTYLYWFQQKPGQAPRLLIYRMSNLASGVPDRFSGSGSGTAFTLKISRVEAEDVGVYYCMQHIEYPFTFGQGTKLEIKGGGGSGGGGSGGGGSQVQLVQSGPEVKKPGASVKVSCKASGYTFTNSWMNWVRQRPGKGLEWIGRIYPGDGETIYNGKFRVRVTITADESTSTAYMELSSLRSEDTAVYYCARGYDDYSFAYWGQGTTVTVSSGGGGSGGGGSGGGGSDIVMTQSPLSLPVTPGEPASISCRSSKSLLHSNGNTYLYWFQQKPGQAPRLLIYRMSNLASGVPDRFSGSGSGTAFTLKISRVEAEDVGVYYCMQHIEYPFTFGQGTKLEIK
notes: Humanized sc(Fv)2 without Flag tag, purified on an MG10-GST column; also called humanized VB22B sc(Fv)2 (q-wz5)
Kd [5]: 13.6 nM | koff [5]: 0.0051 s⁻¹ | kon [5]: 376000 M⁻¹ s⁻¹

B3: hVB22B u2-wz4 sc(Fv)2 (scFv)
chain: B2 chain with E82Q, Q175L, A181S, R183Q, A208D, E342Q, Q435L, A441S, R443Q, A468D
notes: Humanized sc(Fv)2 without Flag tag, purified on an MG10-GST column; also called humanized VB22B sc(Fv)2 (u2-wz4)
Kd [5]: 10.2 nM | koff [5]: 0.00617 s⁻¹ | kon [5]: 608000 M⁻¹ s⁻¹

B4: VB22B sc(Fv)2 (scFv)
chain: QVQLQQSGPELVKPGASVKISCKASGYAFTNSWMNWVKQRPGKGLEWIGRIYPGDGETIYNGKFRVKATLTADKSSSTAYMDISSLTSEDSAVYFCARGYDDYSFAYWGQGTLVTVSAGGGGSGGGGSGGGGSDIVMTQAAPSIPVTPGESVSISCRSSKSLLHSNGNTYLYWFLQRPGQSPQLLIYRMSNLASGVPDRFSGSGSGTAFTLRISRVEAEDVGVYYCMQHIEYPFTFGSGTKLEIKGGGGSGGGGSGGGGSQVQLQQSGPELVKPGASVKISCKASGYAFTNSWMNWVKQRPGKGLEWIGRIYPGDGETIYNGKFRVKATLTADKSSSTAYMDISSLTSEDSAVYFCARGYDDYSFAYWGQGTLVTVSAGGGGSGGGGSGGGGSDIVMTQAAPSIPVTPGESVSISCRSSKSLLHSNGNTYLYWFLQRPGQSPQLLIYRMSNLASGVPDRFSGSGSGTAFTLRISRVEAEDVGVYYCMQHIEYPFTFGSGTKLEIK
notes: Single-chain (Fv)2 with 15-residue linkers, purified on anti-Flag gel (FLAG-tagged); also called murine VB22B sc(Fv)2; anti-human Mpl sc(Fv)2
Kd [5]: 11.7 nM | koff [5]: 0.00491 s⁻¹ | kon [5]: 423000 M⁻¹ s⁻¹ | binding result [6]: no binding | binding result [7]: binds | TPO-like agonistic activity, EC50 (growth of BaF3-human Mpl, WST-8) [4]: 27 pM
